By Kd is commonly meant the equilibrium constant for the complex coming apart. Low values mean higher affinity, high ones lower affinity.

This assay addresses oligomeric EF-Tu (^OligoEF-Tu), unfolded (UniProt P0CE47 1-394). The assay can be described thus: ITC; 20 °C. (Isothermal titration calorimetry measures the heat released or taken up as one component is titrated into another.)

Chain of oligomeric EF-Tu (^OligoEF-Tu), unfolded (P0CE47 whole entry): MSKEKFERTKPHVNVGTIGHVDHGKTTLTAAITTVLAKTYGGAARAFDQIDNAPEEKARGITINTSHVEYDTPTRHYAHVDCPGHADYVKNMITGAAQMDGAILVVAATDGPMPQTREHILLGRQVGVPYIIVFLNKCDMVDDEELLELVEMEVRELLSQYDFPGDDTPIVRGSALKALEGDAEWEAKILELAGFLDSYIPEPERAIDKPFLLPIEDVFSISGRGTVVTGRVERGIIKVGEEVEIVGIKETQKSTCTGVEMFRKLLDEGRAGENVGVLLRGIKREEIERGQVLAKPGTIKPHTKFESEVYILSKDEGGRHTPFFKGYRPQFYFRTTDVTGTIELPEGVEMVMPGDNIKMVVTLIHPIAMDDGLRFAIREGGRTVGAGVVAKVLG

B1: trigger factor (TF) (natural protein)
chain: MQVSVETTQGLGRRVTITIAADSIETAVKSELVNVAKKVRIDGFRKGKVPMNIVAQRYGASVRQDVLGDLMSRNFIDAIIKEKINPAGAPTYVPGEYKLGEDFTYSVEFEVYPEVELQGLEAIEVEKPIVEVTDADVDGMLDTLRKQQATWKEKDGAVEAEDRVTIDFTGSVDGEEFEGGKASDFVLAMGQGRMIPGFEDGIKGHKAGEEFTIDVTFPEEYHAENLKGKAAKFAINLKKVEERELPELTAEFIKRFGVEDGSVEGLRAEVRKNMERELKSAIRNRVKSQAIEGLVKANDIDVPAALIDSEIDVLRRQAAQRFGGNEKQALELPRELFEEQAKRRVVVGLLLGEVIRTNELKADEERVKGLIEEMASAYEDPKEVIEFYSKNKELMDNMRNVALEEQAVEAVLAKAKVTEKETTFNELMNQQA
In turn, B1 came in with a Kd of 1860 nM.

Values taken from PMC8614738 (2021).
